Assay results published in PMC9845149, “Interplay between C1-inhibitor and group IIA secreted phospholipase A2 impairs their respective function” (Immunologic Research, 2022).

Biological target: T1, human plasma-derived C1-esterase inhibitor (human, UniProt P05155 23-500)
T1 construct: Glycoprotein from plasma; also called pdC1-INH; C1-INH; source: bought: Cinryze, Takeda Pharmaceutical Company (human plasma-derived); also in plasma of healthy donors (functional assay)
T1 sequence (looked up): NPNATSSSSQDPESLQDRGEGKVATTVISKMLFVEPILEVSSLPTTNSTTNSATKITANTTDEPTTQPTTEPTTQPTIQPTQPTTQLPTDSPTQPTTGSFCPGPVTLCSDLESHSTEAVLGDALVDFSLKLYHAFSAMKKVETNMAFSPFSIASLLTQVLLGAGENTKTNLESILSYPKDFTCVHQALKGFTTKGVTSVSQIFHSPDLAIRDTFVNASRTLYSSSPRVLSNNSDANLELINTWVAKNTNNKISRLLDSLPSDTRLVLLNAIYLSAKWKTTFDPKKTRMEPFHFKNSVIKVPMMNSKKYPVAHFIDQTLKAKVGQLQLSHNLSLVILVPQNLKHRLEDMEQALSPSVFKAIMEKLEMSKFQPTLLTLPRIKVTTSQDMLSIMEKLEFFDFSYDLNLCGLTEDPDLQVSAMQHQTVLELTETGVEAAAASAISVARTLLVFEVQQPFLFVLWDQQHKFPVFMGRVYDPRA
Experiment: SPR; Biacore 3000; hGIIA N1A immobilised at 800 RU on a CM5 chip (EDC/NHS), BSA as reference channel; C1-INH injected at 10, 20, 30, 40, 50 µM in HBS (10 mM Hepes, pH 7.4, 150 mM NaCl, 3 mM EDTA), 30 µL/min; 1:1 Langmuir model
Details: both partners purified

Kd: 6.7 µM | koff: 0.0125 s⁻¹
B1: Recombinant human group IIA secreted phospholipase A2, N1A catalytically active mutant (enzyme, UniProt P14555 21-144, looked up)
chain: ALVNFHRMIKLTTGKEAALSYGFYGCHCGVGGRGSPKDATDRCCVTHDCCYKRLEKRGCGTKFLSYKFSNSGSRITCAKQDSCRSQLCECDKAAATCFARNKTTYNKKYQYYSNKHCRGSTPRC
notes: human group IIA secreted phospholipase A2 (hGIIA), UniProt P14555; N1A mutation facilitates the removal of the initiator methionine; PDB 1DCY chain A covers aa 1-124; also called hGIIA; hGIIA N1A
